PMC9865707, “Structural Insights of the DciA Helicase Loader in Its Relationship with DNA”

B1: ssDNA oso23 (ssDNA)
DNA: AAGCGTGGTGAAACCTACCTCTGATTCGAAACCTTCACTTTACGTGGTCTGGCGTGGTGAATGTTCGTCGGCGTGCTCGA
B2: foDNA oso23/oso18 (dsDNA)
DNA 1: B1 DNA
DNA 2: CCAGGAATACGGCAAGTTGGAGGCCGGGCTGGATGGAGACTAAGCTTTGGAAGTGAAGGTTTCGAATCAGAGGTAGGTTTCACCACGC

Columns and labels:
VcDnaB [1] = biological target: T1, VcDnaB (Vibrio cholerae, UniProt A0A085R2T8 1-468); assay: BLI; 1 mM ATP?; 100 nM VcDnaB + 25-100 nM VcDciA; loading increased, maximal at 25 nM; BLI: 50 mM Hepes pH 7.0, 150 mM NaCl, 0.1% Tween, 1 mM ATP, temperature not stated; NMR: 20 mM phosphate pH 5.6, 50 mM NaCl, 303 K (also 293 K), 26 uM protein; settings: protein: recombinant; chain copies: 6; label: 5' biotin
VcDnaB [2] = biological target: T1, VcDnaB; assay: BLI; ATP; + VcDciA 25-100 nM; comparable to ssDNA; BLI: 50 mM Hepes pH 7.0, 150 mM NaCl, 0.1% Tween, 1 mM ATP, temperature not stated; NMR: 20 mM phosphate pH 5.6, 50 mM NaCl, 303 K (also 293 K), 26 uM protein; settings: protein: recombinant; chain copies: 6; label: 5' biotin on strand 1; fork, 38 nt hybridized zone; non-complementary tails (strand 1 3' side, strand 2 5' side); 5' overhang 2 nt (AA) of strand 1

Binder | binding result (VcDnaB [1]) | binding result (VcDnaB [2])
B1 | binds | 
B2 |  | binds
